Results published in publication PMC12809092, “A bispecific antibody designed to act as a NRP2/PLXNA1 agonist mimics anticancer activity of SEMA3F” (The Journal of Biological Chemistry, 2025).
Values belong to the binder of their own block, whether it stands above or below them.

Legend:
[1] = biological target: T1, hNRP2_ECD, human neuropilin-2 extracellular domain (Homo sapiens, UniProt O60462); test: BLI; affinity of aNRP2 mAbs to hNRP2_ECD, shown as KD; as previously described; mean ± SEM of at least 3 experiments; conditions: both partners purified
T1 construct: neuropilin-2, human, extracellular domain
T1 sequence (O60462 21-864): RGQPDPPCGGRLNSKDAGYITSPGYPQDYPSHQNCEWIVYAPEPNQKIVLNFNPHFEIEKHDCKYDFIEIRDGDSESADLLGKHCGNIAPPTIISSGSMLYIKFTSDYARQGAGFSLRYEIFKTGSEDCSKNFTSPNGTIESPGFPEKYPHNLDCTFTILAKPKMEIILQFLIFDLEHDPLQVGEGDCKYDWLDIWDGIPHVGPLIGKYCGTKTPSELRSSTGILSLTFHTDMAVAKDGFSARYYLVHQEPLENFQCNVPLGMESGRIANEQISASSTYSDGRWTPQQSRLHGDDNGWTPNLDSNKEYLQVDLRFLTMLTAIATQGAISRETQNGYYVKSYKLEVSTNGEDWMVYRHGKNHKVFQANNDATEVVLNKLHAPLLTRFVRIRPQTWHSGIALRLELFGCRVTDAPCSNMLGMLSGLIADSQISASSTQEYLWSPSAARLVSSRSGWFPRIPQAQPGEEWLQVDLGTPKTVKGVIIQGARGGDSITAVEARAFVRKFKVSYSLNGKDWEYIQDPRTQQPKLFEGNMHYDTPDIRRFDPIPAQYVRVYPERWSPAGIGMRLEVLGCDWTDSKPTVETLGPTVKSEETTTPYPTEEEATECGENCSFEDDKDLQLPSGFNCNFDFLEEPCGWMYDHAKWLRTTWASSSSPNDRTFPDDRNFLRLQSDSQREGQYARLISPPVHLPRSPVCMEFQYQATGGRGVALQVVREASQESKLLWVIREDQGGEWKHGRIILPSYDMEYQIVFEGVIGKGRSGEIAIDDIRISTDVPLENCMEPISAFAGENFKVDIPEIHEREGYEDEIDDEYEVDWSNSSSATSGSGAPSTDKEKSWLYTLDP

[2] = biological target: T2, PLXNA1-LBD, recombinant human plexinA1 ligand-binding domains (human, UniProt Q9UIW2); test: BLI; Octet Red96e; Fab captured on streptavidin tips by biotinylated anti-LC-kappa-murine antibody; PLXNA1 ECD or LBD in solution at 1.85-1350 nM; global fit, 1:1 model; conditions: both partners purified
T2 construct: the DNA encoded amino acids 1-710 of NP_115618.3 (signal peptide removed on secretion); The final cryo-EM model holds only the SEMA and PSI1 domains; also called hPLXNA1 LBD; source: Expi293F, transfected, purified from culture media (HiTrap MabSelect column)

[3] = biological target: T3, PLXNA1-ECD, recombinant human plexinA1 full extracellular domains (Homo sapiens, UniProt Q9UIW2); test: as above; conditions: both partners purified
T3 construct: plexinA1, human, extracellular domains, aa 27-1244; the DNA encoded amino acids 1-1244 of NP_115618.3 (signal peptide removed on secretion); also called hPLXNA1 ECD; source: Expi293F, transfected, purified from culture media (HiTrap MabSelect column)

[4] = biological target: the molecule itself; test: cryo-EM structure; purified complex of PLXNA1-LBD and aPLXNA1-19-43 Fab; 3.33 Å

Kd [1]: 0.33 nM
B1: aNRP2-b2cL, anti-NRP2 mAb (antibody, V domains shown)
VH: QVRLQQPGAELVMPGASVKLSCKASGYTFTSYWMHWVKQRPGQGLEWIGVIHPNSASTFYNERFKTKATLTVDRSSSTAYMQLSSLTSEDSAVYYCSRPGTVRRSDYWGQGTTLTVSS
VL: DVLMTQSPLSLSVSLGDQASISCRSSQNIVHSTGNTYLEWYLQKPGQSPKLLIYKVSNRFSGVPDRFSGSGSGTDFTLKISRVEAEDLGVYYCFQGSHVPWTFGGGTKLEIK
notes: also called Nb2cL

Kd [2]: 5.99 ± 1.14 nM
Kd [3]: 2.37 ± 0.78 nM
B2: aPLXNA1-19-43 Fab (Fab, V domains shown)
VH: EVQLQQSGPELVKPGASVKISCKASGYKFTENYMDWVKQSHGESLEWIGDISPDNGDTSYNQKFRDKATLTVDKSSSTAYMELRSLTSEDSAVYYCAQIIYYDYVGYALDYWGQGTSVTVSS
VL: QIVLTQSPAILSASPGEKVTMSCSVSSSITYMHWYQQKPGTSPKRWIYDTSKLASGVPARFSGSGSGTSFSLTISNMEAEDAATYYCHQRSSYPYSFGGGTKLEIK
notes: VH of aPLXNA1-19-43; also in the deposited structure; constant part of the Fab heavy chain, mouse IgG1 backbone; VL (kappa) of aPLXNA1-19-43; mouse kappa light chain constant region (Fab captured by an anti-LC-kappa-murine antibody); Fab of the mAb aPLXNA1-19-43, the anti-PLXNA1 half of m6; also called aPLXNA1 Fab 19 to 43; aPLXNA1 Fab-P1943; source: Expi293F, transfected, purified from culture …

B3: PLXNA1-LBD, recombinant human plexinA1 ligand-binding domains (domain or fragment, UniProt Q9UIW2 27-710, looked up)
chain: EAGLPRAGGGSQPPFRTFSASDWGLTHLVVHEQTGEVYVGAVNRIYKLSGNLTLLRAHVTGPVEDNEKCYPPPSVQSCPHGLGSTDNVNKLLLLDYAANRLLACGSASQGICQFLRLDDLFKLGEPHHRKEHYLSSVQEAGSMAGVLIAGPPGQGQAKLFVGTPIDGKSEYFPTLSSRRLMANEEDADMFGFVYQDEFVSSQLKIPSDTLSKFPAFDIYYVYSFRSEQFVYYLTLQLDTQLTSPDAAGEHFFTSKIVRLCVDDPKFYSYVEFPIGCEQAGVEYRLVQDAYLSRPGRALAHQLGLAEDEDVLFTVFAQGQKNRVKPPKESALCLFTLRAIKEKIKERIQSCYRGEGKLSLPWLLNKELGCINSPLQIDDDFCGQDFNQPLGGTVTIEGTPLFVDKDDGLTAVAAYDYRGRTVVFAGTRSGRIRKILVDLSNPGGRPALAYESVVAQEGSPILRDLVLSPNHQYLYAMTEKQVTRVPVESCVQYTSCELCLGSRDPHCGWCVLHSICSRRDACERADEPQRFAADLLQCVQLTVQPRNVSVTMSQVPLVLQAWNVPDLSAGVNCSFEDFTESESVLEDGRIHCRSPSAREVAPITRGQGDQRVVKLYLKSKETGKKFASVDFVFYNCSVHQSCLSCVNGSFPCHWCKYRHVCTHNVADCAFLEGRVNVSEDCPQIL
notes: the DNA encoded amino acids 1-710 of NP_115618.3 (signal peptide removed on secretion); The final cryo-EM model holds only the SEMA and PSI1 domains; also called hPLXNA1 LBD; source: Expi293F, transfected, purified from culture media (HiTrap MabSelect column)
stoichiometry N [4]: 2
